From patent US20210268105A1 (HEXAMER THERAPEUTICS, published 2021) come the findings set out here.

Where no end group is shown, it is not given here.

This data set deals with the molecule itself. Briefly: Blue native PAGE of the peptide dissolved in 1xPBS; self-association into a hexamer. How it is done: The peptide (SEQ ID NO: 15) was synthesized by SPPS and lyophilized for storage. The peptide was dissolved in 1×PBS and then loaded onto a blue native PAGE gel and size fractionated by electrophoresis through a 4-16% acrylamide gradient gel for 90 min at 150 V (constant). The gel was fixed in methanol:acetic acid:water and then rinsed in the same solution to destain. Lane 1 is BSA as a reference protein, and Lane 2 is the self-assembled hexamer. MW standards (which are not shown) are on the right. BSA is 66 kDa and the hexamer has an expected size of 20.7 kDa.
Experiments were performed to confirm that a hexamer forms following hydration of the monomer, elucidate the solubility of epitope coupled hexamers, determine the maximum density of epitope coupling, and confirm that a hexameric structure is maintained following coupling of the epitope. A representative peptide, SEQ ID NO: 15, was synthesized using the protocols previously described. A methionine and aspartic acid residue were placed on the N-terminus, and the methionine residue was protected by acetylation to form Acetyl-MD-(SEQ ID NO: 15). Following SPPS, the peptide was lyophilized for storage. To show self-assembly, the peptide was dissolved in 1×PBS buffer, incubated at room temperature for 5 min, and loaded onto a Blue NativePAGE Novex Bis-Tris Gel using the system purchased from Life Technologies. […]

B1: Acetyl-MD-(SEQ ID NO: 15) (peptide)
peptide: Ac-MDLRSIGKDLRSIGRDLRSIGKDLRSIGRD
notes: After it is dissolved in 1xPBS, six copies self-assemble into a hexamer (expected 20.7 kDa); also called self-assembled peptide
As for B1, the binding result is on record as “binds”.
